# Data from patent US20090143319, “Transcription factor decoy” (AnGesMG, Inc., published 2009).
# B1: SEQ-49 (dsDNA)
# DNA 1: CCTTGAAGGGACTTTCCTCC
# DNA 2: GGAGGAAAGTCCCTTCAAGG
# modifications: PS (*): C*C*TTGAAGGGACTTTCCT*C*C / 3'-G*G*…*G*A*AAGGA*G*G
# B2: SEQ-26 (dsDNA)
# DNA 1: CCTTGAGGGGATTTCCCCC
# DNA 2: GGGGGAAATCCCCTCAAGG
# B3: SEQ-32 (dsDNA)
# DNA 1: CTTGAGGGGATTTCCCCCC
# DNA 2: GGGGGGAAATCCCCTCAAG
# B4: SEQ-9 (dsDNA)
# DNA 1: CCTTGAGGGGATTTCCCCCC
# DNA 2: GGGGGGAAATCCCCTCAAGG
# modifications: PS (*): C*C*TTG*A*GGGGATTT*C*CCCCC / antisense 5'-G*G*GGGGAAA*T*C*CCCTCAAGG
# B5: SEQ-36 (dsDNA)
# DNA 1: TTGAGGGGATTTCCCC
# DNA 2: GGGGAAATCCCCTCAA
# modifications: PS (*): T*TG*A*GGGGATTT*C*CCC / antisense 5'-G*GGGAAA*T*C*CCCTCAA
# B6: SEQ-40 (mixed)
# DNA: CCTTGAGGGGATTTCCCCCC
# mixed: GGGGGGAAATCCCCUCAAGG
# modifications: LNA/RNA marked by bold/italic, positions not recoverable from text
# B7: SEQ-48 (dsDNA)
# DNA 1: CCTTGAAGGGACTTTCCTCC
# DNA 2: GGAGGAAAGTCCCTTCAAGG
# modifications: PS (*): C*C*TTGAAGGGACTTTCCT*C*C / 3'-G*G*AACTTCC*C*T*GAAAGGA*G*G
# B8: SEQ-23 (dsDNA)
# DNA 1: TGAGGGGATTTCCCCC
# DNA 2: GGGGGAAATCCCCTCA
# B9: SEQ-34 (dsDNA)
# DNA 1: GAGGGGATTTCCCC
# DNA 2: GGGGAAATCCCCTC
# modifications: PS (*): G*A*GGGGATTT*C*CCC / antisense 5'-G*GGGAAA*T*C*CCCTC
# B10: SEQ-15 (dsDNA)
# DNA 1: GAGGGGATTTCCCC
# DNA 2: GGGGAAATCCCCTC
# B11: SEQ-21 (dsDNA)
# DNA 1: AGGGGATTTCCCCC
# DNA 2: GGGGGAAATCCCCT
# B12: SEQ-13 (dsDNA)
# DNA 1: GGGGATTTCCCC
# DNA 2: GGGGAAATCCCC
# B13: SEQ-14 (dsDNA)
# DNA 1: AGGGGATTTCCCC
# DNA 2: GGGGAAATCCCCT
# B14: SEQ-31 (dsDNA)
# DNA 1: TTGAGGGGATTTCCCCCC
# DNA 2: GGGGGGAAATCCCCTCAA
# B15: SEQ-25 (dsDNA)
# DNA 1: CTTGAGGGGATTTCCCCC
# DNA 2: GGGGGAAATCCCCTCAAG
# B16: SEQ-24 (dsDNA)
# DNA 1: TTGAGGGGATTTCCCCC
# DNA 2: GGGGGAAATCCCCTCAA
# B17: SEQ-L (dsDNA)
# DNA 1: CCTTGAGGGGACTTTCCCCC
# DNA 2: GGGGGAAAGTCCCCTCAAGG
# B18: SEQ-38 (dsDNA)
# DNA 1: TTGAGGGGATTTCCCC
# DNA 2: GGGGAAATCCCCTCAA
# modifications: PS (*): TTG*A*GGGGATTT*C*CCC / antisense 5'-GGGGAAA*T*C*CCCTCAA
# B19: SEQ-17 (dsDNA)
# DNA 1: TTGAGGGGATTTCCCC
# DNA 2: GGGGAAATCCCCTCAA
# B20: SEQ-37 (dsDNA)
# DNA 1: TTGAGGGGATTTCCCC
# DNA 2: GGGGAAATCCCCTCAA
# modifications: PS (*): T*T*G*A*GGGGATTT*C*CCC / antisense 5'-G*G*GGAAA*T*C*CCCTCAA
# B21: SEQ-20 (dsDNA)
# DNA 1: GGGGATTTCCCCC
# DNA 2: GGGGGAAATCCCC
# B22: SEQ-22 (dsDNA)
# DNA 1: GAGGGGATTTCCCCC
# DNA 2: GGGGGAAATCCCCTC
# B23: SEQ-18 (dsDNA)
# DNA 1: CTTGAGGGGATTTCCCC
# DNA 2: GGGGAAATCCCCTCAAG
# B24: SEQ-46 (dsDNA)
# DNA 1: CCTTGAAGGGACTTTCCTCC
# DNA 2: GGAGGAAAGTCCCTTCAAGG
# modifications: PS at 2 bonds at each end of both strands
# B25: SEQ-M (dsDNA)
# DNA 1: ACCAAGGGATTTCCCTGTCCCAC
# DNA 2: GTGGGACAGGGAAATCCCTTGGT
# B26: SEQ-K (dsDNA)
# DNA 1: AGTTGAAGGGATTTCCCTAGGC
# DNA 2: GCCTAGGGAAATCCCTTCAACT
# B27: SEQ-16 (dsDNA)
# DNA 1: TGAGGGGATTTCCCC
# DNA 2: GGGGAAATCCCCTCA
# B28: SEQ-27 (dsDNA)
# DNA 1: GGGGATTTCCCCCC
# DNA 2: GGGGGGAAATCCCC
# B29: SEQ-29 (dsDNA)
# DNA 1: GAGGGGATTTCCCCCC
# DNA 2: GGGGGGAAATCCCCTC
# B30: SEQ-19 (dsDNA)
# DNA 1: CCTTGAGGGGATTTCCCC
# DNA 2: GGGGAAATCCCCTCAAGG
# B31: SEQ-28 (dsDNA)
# DNA 1: AGGGGATTTCCCCCC
# DNA 2: GGGGGGAAATCCCCT
# B32: SEQ-47 (dsDNA)
# DNA 1: CCTTGAAGGGACTTTCCTCC
# DNA 2: GGAGGAAAGTCCCTTCAAGG
# modifications: PS (*): C*C*TTGAAGGGACTTTCCT*C*C / 3'-G*G*AAC*T*T*…*G*G
# B33: SEQ-33 (dsDNA)
# DNA 1: GAGGGGATTTCCCC
# DNA 2: GGGGAAATCCCCTC
# modifications: PS (*): G*A*GGGGATTT*C*CCC / antisense 5'-GGGGAAA*T*C*CCCTC
# B34: SEQ-30 (dsDNA)
# DNA 1: TGAGGGGATTTCCCCCC
# DNA 2: GGGGGGAAATCCCCTCA
# B35: SEQ-35 (dsDNA)
# DNA 1: GAGGGGATTTCCCC
# DNA 2: GGGGAAATCCCCTC
# modifications: PS (*): G*A*GGGGATTT*C*CCC / antisense 3'-CTCCC*C*T*AAAG*G*GGG (so in the source)
# B36: SEQ-44 (dsDNA)
# DNA 1: CCTTGAAGGGATTTCCCTCC
# DNA 2: GGAGGGAAATCCCTTCAAGG
# modifications: PS (*): C*C*TTGAAGGGATTTCCCT*C*C / 3'-G*G*AA*C*T*…*G*G
# B37: SEQ-45 (dsDNA)
# DNA 1: CCTTGAAGGGATTTCCCTCC
# DNA 2: GGAGGGAAATCCCTTCAAGG
# modifications: PS (*): C*C*TTGAAGGGATTTCCCT*C*C / 3'-G*G*…*A*A*GGGA*G*G
# Target: T1, NF-kB p65 (RelA) (UniProt Q04206 Q04206:1-551)
# T1 sequence (Q04206 whole entry, one chain of several): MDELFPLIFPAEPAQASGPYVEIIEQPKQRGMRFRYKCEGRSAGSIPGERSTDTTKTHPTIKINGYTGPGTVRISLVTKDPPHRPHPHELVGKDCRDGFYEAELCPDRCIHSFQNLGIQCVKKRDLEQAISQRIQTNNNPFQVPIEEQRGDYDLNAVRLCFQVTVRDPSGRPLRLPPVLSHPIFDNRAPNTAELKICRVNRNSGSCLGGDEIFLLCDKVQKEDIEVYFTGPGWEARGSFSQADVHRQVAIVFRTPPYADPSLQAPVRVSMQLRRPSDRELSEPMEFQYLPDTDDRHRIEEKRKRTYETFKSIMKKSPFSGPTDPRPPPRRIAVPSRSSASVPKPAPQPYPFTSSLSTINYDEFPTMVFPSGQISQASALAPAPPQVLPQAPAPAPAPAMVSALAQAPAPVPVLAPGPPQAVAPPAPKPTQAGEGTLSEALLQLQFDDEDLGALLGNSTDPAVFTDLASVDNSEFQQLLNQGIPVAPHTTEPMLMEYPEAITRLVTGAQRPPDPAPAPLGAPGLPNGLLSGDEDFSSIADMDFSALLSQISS
# Assay: competition
# Settings: protein: extract; tags: native, Jurkat nuclear extract (TransAM NF-kB p65 kit, Active Motif)
# Protocol: (§1) Complete Lysis Buffer, Complete Binding Buffer, 1× Wash Buffer and 1× Antibody Binding Buffer are prepared. […] Jurkat nuclear extract was diluted with Complete Lysis Buffer to a concentration of 125 μg protein/mL.
# (§2) To each of the wells in a plate included in the kit, on which a NF-κB-binding nucleic acid is preliminarily immobilized, 30 μL each of the NF-κB Decoy Oligonucleotide Dilution prepared in (1) described above is added. To the wells of the blank and control, 30 μL each of Complete Binding Buffer was added. Then 20 μL each of the above-described Jurkat nuclear extract was added to each well. To each of the wells of the blank and control, 20 μL each of Complete Lysis Buffer was added. After shaking the plate at room temperature for 1 hour, each well was washed with 200 μL of 1× Wash Buffer 3 times, and 100 μL each of rabbit anti-NF-κB p65 antibody 1000-fold diluted with 1× Antibody Binding Buffer was added, followed by shaking the plate at room temperature for 1 hour. Thereafter, each well was washed with 200 μL of 1× Wash Buffer 3 times, and 100 μL each of HRP-labeled anti-rabbit IgG antibody 1000-fold diluted with 1× Antibody Binding Buffer was added to each well, followed by shaking the plate at room temperature for 1 hour. Thereafter, each well was washed with 200 μL each of 1× Wash Buffer 4 times, and 100 μL each of Developing Solution was added, followed by allowing coloring reaction in a dark room for 5 minutes. After the reaction, the coloring reaction was stopped by adding 100 μL each of Stop Solution. […] The percentage of the absorbance of each NF-κB decoy oligonucleotide at each of the concentrations was calculated taking the ratio of absorbances of the well of control as 100, and IC₅₀ of each decoy oligonucleotide was calculated from the approximate curve obtained by plotting the mean values of the above-mentioned percent absorbance.
row,Binder,binding signal
1,B1,0.19 IC50 ratio to SEQ-x
2,B2,0.43 IC50 ratio to SEQ-I
3,B3,0.76 IC50 ratio to SEQ-I
4,B4,0.02 IC50 ratio to SEQ-x
5,B5,0.012 IC50 ratio to SEQ-x
6,B6,> 2.93 IC50 ratio to SEQ-x
7,B7,0.2 IC50 ratio to SEQ-x
8,B8,0.69 IC50 ratio to SEQ-I
9,B9,0.014 IC50 ratio to SEQ-x
10,B10,0.61 IC50 ratio to SEQ-I
11,B11,2.07 IC50 ratio to SEQ-I
12,B12,> 2.87 IC50 ratio to SEQ-I
13,B13,1.39 IC50 ratio to SEQ-I
14,B14,0.84 IC50 ratio to SEQ-I
15,B15,0.41 IC50 ratio to SEQ-I
16,B16,0.52 IC50 ratio to SEQ-I
17,B17,0.66 IC50 ratio to SEQ-x
18,B18,0.011 IC50 ratio to SEQ-x

row,Binder,binding signal
1,B19,0.3 IC50 ratio to SEQ-I
2,B20,0.015 IC50 ratio to SEQ-x
3,B21,> 3.45 IC50 ratio to SEQ-I
4,B22,1.09 IC50 ratio to SEQ-I
5,B23,0.28 IC50 ratio to SEQ-I
6,B24,> 1.67 IC50 ratio to SEQ-x
7,B25,> 1.48 IC50 ratio to SEQ-x
8,B26,> 1.48 IC50 ratio to SEQ-x
9,B27,0.42 IC50 ratio to SEQ-I
10,B28,> 2.2 IC50 ratio to SEQ-I
11,B29,2.17 IC50 ratio to SEQ-I
12,B30,0.26 IC50 ratio to SEQ-I
13,B31,> 2.2 IC50 ratio to SEQ-I
14,B32,0.72 IC50 ratio to SEQ-x
15,B33,0.021 IC50 ratio to SEQ-x
16,B34,1.24 IC50 ratio to SEQ-I
17,B35,0.015 IC50 ratio to SEQ-x

# Target: T1, NF-kB p65 (RelA)
# Assay: competition; 0.60 relative to SEQ-X-PS (Table 7)
# Settings: protein: extract; tags: native, Jurkat nuclear extract (TransAM NF-kB p65 kit, Active Motif)
# Protocol: as §1
# as §2, with “hour.” for “hour. Thereafter, each well was washed with 200 μL of 1× Wash Buffer 3 times, and 100 μL each of HRP-labeled anti-rabbit IgG antibody 1000-fold diluted with 1× Antibody Binding Buffer was added to each well, followed by shaking the plate at room temperature for 1 hour. Thereafter, each well was washed with 200 μL each of 1× Wash Buffer 4 times, and 100 μL each of Developing Solution was added, followed by allowing coloring reaction in a dark room for 5 minutes. After the reaction, the coloring reaction was stopped by adding 100 μL each of Stop Solution.”
row,Binder,binding signal
1,B36,> 1.67 IC50 ratio to SEQ-x

# Target: T1, NF-kB p65 (RelA)
# Assay: competition; 0.16 relative to SEQ-X-PS (Table 7)
# Settings: protein: extract; tags: native, Jurkat nuclear extract (TransAM NF-kB p65 kit, Active Motif)
# Protocol: as §1
# as §2, with “hour.” for “hour. Thereafter, each well was washed with 200 μL of 1× Wash Buffer 3 times, and 100 μL each of HRP-labeled anti-rabbit IgG antibody 1000-fold diluted with 1× Antibody Binding Buffer was added to each well, followed by shaking the plate at room temperature for 1 hour. Thereafter, each well was washed with 200 μL each of 1× Wash Buffer 4 times, and 100 μL each of Developing Solution was added, followed by allowing coloring reaction in a dark room for 5 minutes. After the reaction, the coloring reaction was stopped by adding 100 μL each of Stop Solution.”
row,Binder,binding signal
1,B37,1.43 IC50 ratio to SEQ-x
